Experimental data taken from paper doi:10.1101/2025.11.18.689095 (2025).
Where “and” joins values, the source holds several entries; their conditions need not be identical. Equal values may be shown once. Read-outs that look alike come from different tables or passages of the source. Where no end group is shown, it is not given here.

Key:
[1] = target: T1, human Tom70 (residues 108–608) (human, UniProt O94826 108-608); assay: ITC; average
T1 chain: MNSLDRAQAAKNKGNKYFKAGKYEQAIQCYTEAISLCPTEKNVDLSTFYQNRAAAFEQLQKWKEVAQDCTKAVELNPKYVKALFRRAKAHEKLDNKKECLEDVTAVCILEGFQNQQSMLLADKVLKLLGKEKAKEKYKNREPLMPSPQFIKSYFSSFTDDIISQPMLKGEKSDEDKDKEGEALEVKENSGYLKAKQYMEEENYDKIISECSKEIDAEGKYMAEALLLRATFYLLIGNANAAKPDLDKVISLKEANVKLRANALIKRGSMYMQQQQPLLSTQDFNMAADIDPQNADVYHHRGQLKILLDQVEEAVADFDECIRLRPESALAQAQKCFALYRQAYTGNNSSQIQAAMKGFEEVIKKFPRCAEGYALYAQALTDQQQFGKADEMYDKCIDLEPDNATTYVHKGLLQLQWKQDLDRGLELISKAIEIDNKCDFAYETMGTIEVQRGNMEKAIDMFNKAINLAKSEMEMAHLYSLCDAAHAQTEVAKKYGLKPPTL

[2] = target: T1, human Tom70 (residues 108–608); assay: ITC; run 2
[3] = target: T2, Tom70:Orf9b_(Helix) complex (human | SARS-CoV-2, UniProt O94826 108-608); assay: ITC
T2 chain 1: T1 chain
T2 chain 2: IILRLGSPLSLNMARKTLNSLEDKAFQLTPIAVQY

[4] = target: T1, human Tom70 (residues 108–608); assay: ITC
[5] = target: T2, Tom70:Orf9b_(Helix) complex; assay: ITC
[6] = target: T1, human Tom70 (residues 108–608); assay: ITC; run 1
[7] = target: T1, human Tom70 (residues 108–608); assay: ITC; run 3

YDTSRMEEVD-OH [Hsp90_(EEVD) peptide]
Kd [1]: 11.9 µM
Kd [2]: 10.9 µM
Kd [3]: 12 µM
Kd [4]: 12 µM
Kd [5]: 12.4 µM and 12.8 µM and 12.3 µM and 11.8 µM
Kd [6]: 12.8 µM
Kd [7]: 11.9 µM
